For this experiment, the target named is T1, Msn5_(βC-helix-tail) (residues 1179-1224 removed) (S. cerevisiae, UniProt P52918 1-1178).
T1 sequence (looked up): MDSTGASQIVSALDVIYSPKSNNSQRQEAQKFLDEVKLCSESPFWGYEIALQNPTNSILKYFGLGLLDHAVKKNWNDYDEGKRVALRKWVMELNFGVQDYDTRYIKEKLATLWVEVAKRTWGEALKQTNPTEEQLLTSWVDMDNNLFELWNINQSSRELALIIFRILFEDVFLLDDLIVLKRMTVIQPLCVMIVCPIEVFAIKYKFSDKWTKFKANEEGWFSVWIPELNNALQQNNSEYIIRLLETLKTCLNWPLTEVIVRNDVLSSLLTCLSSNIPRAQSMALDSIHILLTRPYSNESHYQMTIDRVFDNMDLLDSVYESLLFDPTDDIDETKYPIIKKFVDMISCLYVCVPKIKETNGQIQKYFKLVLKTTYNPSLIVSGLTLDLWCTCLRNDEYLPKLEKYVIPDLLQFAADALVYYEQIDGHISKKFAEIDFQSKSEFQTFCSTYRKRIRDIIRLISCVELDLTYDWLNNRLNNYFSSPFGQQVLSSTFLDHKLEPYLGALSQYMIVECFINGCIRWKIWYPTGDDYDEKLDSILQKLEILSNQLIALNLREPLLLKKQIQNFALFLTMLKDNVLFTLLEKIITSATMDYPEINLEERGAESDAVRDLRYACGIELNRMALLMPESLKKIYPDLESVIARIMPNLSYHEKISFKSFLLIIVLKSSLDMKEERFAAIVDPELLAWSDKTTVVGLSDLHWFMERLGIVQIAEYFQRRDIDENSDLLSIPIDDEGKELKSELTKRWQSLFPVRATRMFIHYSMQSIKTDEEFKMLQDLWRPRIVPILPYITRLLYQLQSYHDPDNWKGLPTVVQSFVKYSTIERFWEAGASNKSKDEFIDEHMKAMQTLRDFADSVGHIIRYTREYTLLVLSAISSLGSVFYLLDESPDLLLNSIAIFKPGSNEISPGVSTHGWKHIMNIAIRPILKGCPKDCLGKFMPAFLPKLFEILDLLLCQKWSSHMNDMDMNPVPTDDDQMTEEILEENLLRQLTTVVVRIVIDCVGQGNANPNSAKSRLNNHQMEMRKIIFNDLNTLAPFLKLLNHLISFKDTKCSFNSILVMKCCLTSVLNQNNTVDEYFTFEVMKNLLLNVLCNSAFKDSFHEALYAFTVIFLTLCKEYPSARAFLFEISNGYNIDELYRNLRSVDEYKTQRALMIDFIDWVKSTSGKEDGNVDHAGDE
In words: pull-down.

B1: GST-pPho4_(1-200) (domain or fragment, S. cerevisiae, UniProt P07270 1-200, looked up)
chain: MGRTTSEGIHGFVDDLEPKSSILDKVGDFITVNTKRHDGREDFNEQNDELNSQENHNSSENGNENENEQDSLALDDLDRAFELVEGMDMDWMMPSHAHHSPATTATIKPRLLYSPLIHTQSAVPVTISPNLVATATSTTSANKVTKNKSNSSPYLNKRRGKPGPDSATSLFELPDSVIPTPKPKPKPKQYPKVILPSNST
modifications: phosphoserine at 100, 114, 128, 152 (in vitro phosphorylation by Pho80-Pho85)
Take B1: the binding result is “binds”.

Values taken from doi:10.1101/2024.08.12.607649 (bioRxiv, 2024).
